The target in test [1] is T1, 人CLDN18.2 (hCLDN18.2), claudin-18 isoform 2 [Homo sapiens], NP_001002026.1 (human).
T1 construct: the whole gene was transfected; also called 人CLDN18.2+ 细胞; hCLDN18.2+ cell
The test is described as follows: cell ELISA on hCLDN18.2+ cells (Table 16a).

For test [2], the target named is T2, 鼠CLDN18.2 (mCLDN18.2), claudin-18 isoform A2.1 [Mus musculus], NP_001181850.1 (mouse, UniProt P56857 10-264).
T2 construct: also called 鼠CLDN18.2+细胞; mCLDN18.2+ cell
T2 chain: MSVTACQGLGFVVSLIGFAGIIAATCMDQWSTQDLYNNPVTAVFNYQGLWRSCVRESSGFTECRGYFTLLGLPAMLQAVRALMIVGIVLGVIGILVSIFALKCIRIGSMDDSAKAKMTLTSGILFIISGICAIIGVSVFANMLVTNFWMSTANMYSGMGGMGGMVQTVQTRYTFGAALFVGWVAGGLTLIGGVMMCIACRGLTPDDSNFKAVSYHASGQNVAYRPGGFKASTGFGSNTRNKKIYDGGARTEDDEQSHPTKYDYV
Kind of test: cell ELISA on mCLDN18.2+ cells.

Test [3] concerns the target T2, 鼠CLDN18.2 (mCLDN18.2), claudin-18 …. The test is described as follows: cell ELISA on mCLDN18.2+ cells (Table 23).
The target is the same in test [4]. The test is described as follows: cell ELISA on mCLDN18.2+ cells, against Ref.
Test [5] deals with T3, 人CLDN18.1 (hCLDN18.1), claudin-18 isoform 1 precursor [Homo sapiens], NP_057453.1 (human, UniProt P56856 1-261).
T3 construct: No signal peptide limits stated for this entry; also called 人CLDN18.1+ 细胞; hCLDN18.1+ cell
T3 sequence: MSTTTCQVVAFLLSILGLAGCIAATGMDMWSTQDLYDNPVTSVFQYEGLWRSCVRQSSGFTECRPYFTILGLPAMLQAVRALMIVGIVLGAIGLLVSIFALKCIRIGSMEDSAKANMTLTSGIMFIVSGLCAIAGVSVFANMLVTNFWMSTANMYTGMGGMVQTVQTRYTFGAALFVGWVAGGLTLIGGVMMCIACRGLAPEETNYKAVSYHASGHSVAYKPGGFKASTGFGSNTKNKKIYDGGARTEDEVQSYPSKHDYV
The test is described as follows: cell ELISA, hybridoma supernatant on hCLDN18.1+ cells.

Test [6] addresses T1, 人CLDN18.2 (hCLDN18.2), claudin-18 …. Kind of test: cell ELISA, hybridoma supernatant on hCLDN18.2+ cells. In general terms: In an ELISA, binding on a coated surface is turned into a signal by an enzyme label.
The target is the same in test [7]. The test is described as follows: cell-based or functional assay.
Test [8] has as its target T4, 鼠CLDN18.1 (mCLDN18.1), claudin-18 isoform A1.1 precursor, NP_062789.1 (mouse, UniProt P56857 1-264).
T4 construct: also called 鼠CLDN18.1+ 细胞; mCLDN18.1+ cell
T4 sequence: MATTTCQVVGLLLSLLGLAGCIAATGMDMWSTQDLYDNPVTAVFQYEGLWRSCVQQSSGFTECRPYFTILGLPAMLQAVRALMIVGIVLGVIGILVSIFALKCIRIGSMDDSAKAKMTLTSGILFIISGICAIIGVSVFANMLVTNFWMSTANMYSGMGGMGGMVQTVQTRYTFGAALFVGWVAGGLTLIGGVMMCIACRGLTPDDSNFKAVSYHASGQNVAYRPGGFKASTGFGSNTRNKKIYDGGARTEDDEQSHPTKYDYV
Kind of test: cell ELISA on mCLDN18.1+ cells.

Test [9] has as its target T3, 人CLDN18.1 (hCLDN18.1), claudin-18 …. The test is described as follows: cell ELISA on hCLDN18.1+ cells.

A value given as a limit tells only on which side of the number the result lay.

B1: Ab22 (轻链CDR1 NS-> TS, 重链 CDR3 NS-> NT) (antibody, V domains shown)
VH: EVMLVESGGGLVKPGGSLKLSCAASGFTFSSYTMSWVRQTPEKRLEWVATIIGGYGNTYYADSVKGRFTISRDSAKNTLYLQMISLRSEDTALYYCTRLGQTQRNAMDYWGQGTSVTVSS
VL: DILMTQSPSSLSVSAGEKVTMSCKSSQSLLNSGNQKNYLAWYQQKPGQPPKLLIYGASTRESGVPDTFTGSGSGTDFTLTISSVQAEDLAVYYCQNDYYYPFTFGAGTKLEL
One may read the EC50 as the concentration needed to bring the measured effect to its halfway point. The low end stands for higher potency in that assay, the high end for lower potency in that assay. Take B1: a half-maximal response in test [1] (EC50) required 1370 pM.

B2: anti-hCLDN18.2抗体mab5b (重组表达) (antibody, human IgG1, kappa, V domains shown)
VH: QVQLQQSGAELIGPGTSVKVSCKASGYAFSNYLIEWVKQRPEQGLEWIGLINPGSGGTNYNEKFKGKATLTADKSSSTAYMQLSSLTSDDSAVYFCARVYYGNSFAYWGQGTLVTVSA
VL: DIVMTQSPSSLTVTAGEKVTMSCKSSQSLLNSGNQKNYLTWYQQKPGQPPKLLIYWASTRESGVPDRFTGSGSGTHFTLTISSVQAEDLAVYYCQNDYFYPFTFGSGTKLEKKR
notes: also called 鼠源抗体mab5b
With B2, the EC50 in test [2] came out at 182 pM. In test [3], this molecule had a concentration for a half-maximal effect (EC50) of 375 pM and an Emax of 2.17. Further, in [4], the “结合活性 (EC50) 比Ref好的倍数” value was > 4 倍.

B3: mab1 (初始杂交瘤克隆 F2A4, 上清) (antibody, V domains shown)
VH: EVQLLESGGGLVQPGGSLRLSCAASGFTFSSYGMGWVRQAPGKGLEWVAAITRDSSTNYGAAVKGRATISRDNSKNTLYLQMNSLRAEDTAVYYCAKDASNGYCWYTGRGSYSCGAHHIDAWGQGTLVTVSS
VL: SYELTQPPSVSVSPGQTARITCSGGYNGHYGWYQQKPGQAPVTVIYSNNQRPSGIPERFSGSSSGTTVTLTISGVQAEDEADYYCGGYDSSAGIFGGGTKLTVL
Consider B3, for which the “结合活性 (ELISA)” value was found to be 1.19 in [5] and 1.62 in test [6].

B4: mab3 (初始杂交瘤克隆 C6F9, 上清) (antibody, V domains shown)
VH: EVQLLESGGGLVQPGGSLRLSCAASGFTFRSYAMMWVRQAPGKGLEWVGEISSTGGSTYYGSAVKGRATISRDNSKNTLYLQMNSLRAEDTAVYYCAKSTYGATWKSADSIDAWGQGTLVTVSS
VL: SYELTQPPSVSVSPGQTARITCSGGYNGHYGWYQQKPGQAPVLVIYSNNQRPSGIPERFSGSSSGTTVTLTISGVQAEDEADYYCGGYDSSAGIFGGGTKLTVL
In the case of B4, the “结合活性 (ELISA)” value in test [5] came out at 0.448; in test [6], 0.671.

B5: Ab66 (L21, H61, hIgG1 Fc S239D/A330L/I332E) (antibody)
heavy: QVQLVQSGAEVKKPGSSVKVSCKASGYAFSNYLIEWVRQAPGQGLEWMGLINPGSGGTNYNEKFKGKVTITADKSTSTAYMELSSLRSEDTAVYYCARVYYGNTFAYWGQGTLVTVSSASTKGPSVFPLAPSSKSTSGGTAALGCLVKDYFPEPVTVSWNSGALTSGVHTFPAVLQSSGLYSLSSVVTVPSSSLGTQTYICNVNHKPSNTKVDKKVEPKSCDKTHTCPPCPAPELLGGPDVFLFPPKPKDTLMISRTPEVTCVVVDVSHEDPEVKFNWYVDGVEVHNAKTKPREEQYNSTYRVVSVLTVLHQDWLNGKEYKCKVSNKALPLPEEKTISKAKGQPREPQVYTLPPSRDELTKNQVSLTCLVKGFYPSDIAVEWESNGQPENNYKTTPPVLDSDGSFFLYSKLTVDKSRWQQGNVFSCSVMHEALHNHYTQKSLSLSPGK
light: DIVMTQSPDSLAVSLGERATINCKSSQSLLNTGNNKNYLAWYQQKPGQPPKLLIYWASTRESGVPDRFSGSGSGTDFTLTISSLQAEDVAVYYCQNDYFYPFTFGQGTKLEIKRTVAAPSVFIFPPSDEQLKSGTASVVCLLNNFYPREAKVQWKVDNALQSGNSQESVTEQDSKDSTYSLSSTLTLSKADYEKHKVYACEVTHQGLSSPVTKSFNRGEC
As to B5, the “CDC EC50 (人血清补体对hCLDN18.2+细胞, LDH)” value in test [7] was found to be 0.927 µg/mL.

B6: Ab60 (L12, H51, hIgG1 Fc S239D/A330L/I332E) (antibody)
heavy: QVQLVQSGAEVKKPGSSVKVSCKASGYAFSNYLIEWVKQAPGQGLEWIGLINPGSGGTNYNEKFKGKATITADKSTSTAYMELSSLRSEDTAVYYCARVYYGNSFAYWGQGTLVTVSSASTKGPSVFPLAPSSKSTSGGTAALGCLVKDYFPEPVTVSWNSGALTSGVHTFPAVLQSSGLYSLSSVVTVPSSSLGTQTYICNVNHKPSNTKVDKKVEPKSCDKTHTCPPCPAPELLGGPDVFLFPPKPKDTLMISRTPEVTCVVVDVSHEDPEVKFNWYVDGVEVHNAKTKPREEQYNSTYRVVSVLTVLHQDWLNGKEYKCKVSNKALPLPEEKTISKAKGQPREPQVYTLPPSRDELTKNQVSLTCLVKGFYPSDIAVEWESNGQPENNYKTTPPVLDSDGSFFLYSKLTVDKSRWQQGNVFSCSVMHEALHNHYTQKSLSLSPGK
light: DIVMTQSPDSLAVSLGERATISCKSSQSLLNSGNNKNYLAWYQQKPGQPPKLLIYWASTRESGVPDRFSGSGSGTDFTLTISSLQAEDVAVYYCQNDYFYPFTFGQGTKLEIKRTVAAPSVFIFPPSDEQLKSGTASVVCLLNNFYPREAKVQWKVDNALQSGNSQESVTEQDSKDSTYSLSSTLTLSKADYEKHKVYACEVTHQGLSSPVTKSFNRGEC
Turning to B6, in [7], the “ADCC EC50 (PBMC对hCLDN18.2+细胞, LDH)” value is 0.431 µg/mL and the “CDC EC50 (人血清补体对hCLDN18.2+细胞, LDH)” value was found to be 0.973 µg/mL.

B7: Ab36抗体 (antibody, human IgG1, kappa, V domains shown)
VH: QVQLVQSGAEVKKPGSSVKVSCKASGYAFSNYLIEWVKQAPGQGLEWIGLINPGSGGTNYNEKFKGKATITADKSTSTAYMELSSLRSEDTAVYYCARVYYGNTFAYWGQGTLVTVSS
VL: DIVMTQSPDSLAVSLGERATISCKSSQSLLNTGNNKNYLAWYQQKPGQPPKLLIYWASTRESGVPDRFSGSGSGTDFTLTISSLQAEDVAVYYCQNDYFYPFTFGQGTKLEIKR
notes: Ab6 with NS->NT in light CDR1 and heavy CDR3; hIgG1 / kappa
As to B7, in test [7], the “CDC EC50 (人血清补体对hCLDN18.2+细胞, LDH)” value was 1.75 µg/mL. Also, in test [8], the binding result is “no binding”. In test [3], this molecule showed an EC50 of 518 pM and an Emax of 2.18.

B8: 人源化Ab10抗体 (antibody, human IgG1, kappa, V domains shown)
VH: QVQLVQSGAEVKKPGSSVKVSCKASGYAFSNYLIEWVKQAPGQGLEWIGLINPGSGGTNYNEKFKGKATITADKSTSTAYMELSSLRSEDTAVYYCARVYYGNSFAYWGQGTLVTVSS
VL: DIVMTQSPDSLAVSLGERATISCKSSQSLLNSGNQKNYLTWYQQKPGQPPKLLIYWASTRESGVPDRFSGSGSGTDFTLTISSLQAEDVAVYYCQNDYFYPFTFGQGTKLEIKR
notes: Humanized, hIgG1 (356-358 DEL) / kappa; also called L14/H51
Consider B8, for which the binding result in test [9] and in [8] was “no binding” each time. In addition, the EC50 in test [3] came to 371 pM. Besides, the Emax in [3] is 2.27.

B9: Ab51抗体 (antibody, human IgG1, kappa, V domains shown)
VH: QVQLVQSGAEVKKPGSSVKVSCKASGYAFSNYLIEWVRQAPGQGLEWMGLINPGSGGTNYNEKFKGRVTITADESTSTAYMELSSLRSEDTAVYYCARVYYGNTFAYWGQGTLVTVSS
VL: DIVMTQSPDSLAVSLGERATINCKSSQSLLNTGNNKNYLAWYQQKPGQPPKLLIYWASTRESGVPDRFSGSGSGTDFTLTISSLQAEDVAVYYCQNDYFYPFTFGQGTKLEIKR
notes: hIgG1 (DEL) / kappa; also called L21/H64 DEL
On to B9, for which the “CDC EC50 (人血清补体对hCLDN18.2+细胞, LDH)” value in test [7] amounted to 2.12 µg/mL. In test [8], the binding result is “no binding”. In test [3], this molecule had an EC50 of 474 pM and an Emax of 1.91.

B10: mab2 (初始杂交瘤克隆 F6B1, 上清) (antibody, V domains shown)
VH: EVQLLESGGGLVQPGGSLRLSCAASGFTFSSYGMSWVRQAPGKGLEWVAGIGSSGSDTWYADSVKGRFTISRDNSKNTLYLQMNSLRAEDTAVYYCAKDATNGYCWYTGRGSYSCGAHHIDAWGQGTLVTVSS
VL: SYELTQPPSVSVSPGQTARITCSGGSGSYGYYGWYQQKPGQAPVTVIYGTNKRPSGIPERFSGSSSGTTVTLTISGVQAEDEADYYCGGYDSSAGIFGGGTKLTVL
Consider B10, for which the entries for the “结合活性 (ELISA)” value in [5] and in test [6] were 0.123 and 0.176, respectively.

The values are drawn from CN110606891A (L&L BIOPHARMA CO LTD, dated 2019).
